target: SLPI binding sites on HuT78 cells (human T cell line) (human); assay: competition with 125I-SLPI, intact HuT78 cells, competitor at 8.2 nM

Chain of SLPI mutein Gly 20 (P03973 other isoform, or with tags, fused parts or gaps mutant): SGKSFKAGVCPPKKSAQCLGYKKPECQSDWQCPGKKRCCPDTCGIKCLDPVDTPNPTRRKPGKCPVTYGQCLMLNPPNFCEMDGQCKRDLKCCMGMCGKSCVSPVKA
Chain of SLPI mutein Lys 72 (P03973 other isoform, or with tags, fused parts or gaps mutant): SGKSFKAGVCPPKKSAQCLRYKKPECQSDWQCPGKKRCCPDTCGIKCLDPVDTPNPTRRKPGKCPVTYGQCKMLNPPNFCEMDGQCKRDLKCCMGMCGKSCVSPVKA

% *SLPI BOUND | Substance
103% | SLPI mutein Gly 20 (from UniProt P03973 26-132)
116% | SLPI mutein Lys 72 (from UniProt P03973 26-132)

target: SLPI binding sites on U937 cells (human monocyte cell line; intact cells, PMA-induced cells or plasma membranes) (human); assay: competition with 125I-SLPI, intact U937 cells, Kd by Cheng-Prusoff

Kd | Substance
3.5 nM | SLPI mutein Gly 20 (from UniProt P03973 26-132)
2.5 nM | SLPI mutein Lys 72 (from UniProt P03973 26-132)

target: SLPI binding sites on U937 cells (human monocyte cell line; intact cells, PMA-induced cells or plasma membranes) (human); assay: competition with 125I-SLPI, U937 plasma membranes, Kd by Cheng-Prusoff

Kd | Substance
5 nM | SLPI mutein Gly 20 (from UniProt P03973 26-132)
5 nM | SLPI mutein Lys 72 (from UniProt P03973 26-132)

target: SLPI binding sites on HuT78 cells (human T cell line) (human); assay: competition with 125I-SLPI, intact HuT78 cells, competitor at 84 nM

% *SLPI BOUND | Substance
50% | SLPI mutein Gly 20 (from UniProt P03973 26-132)
86% | SLPI mutein Lys 72 (from UniProt P03973 26-132)

target: SLPI binding sites on U937 cells (human monocyte cell line; intact cells, PMA-induced cells or plasma membranes) (human); assay: competition with 125I-SLPI, intact U937 cells, competitor at 2.6 nM

% *SLPI BOUND | Substance
71% | SLPI mutein Lys 72 (from UniProt P03973 26-132)

target: SLPI binding sites on U937 cells (human monocyte cell line; intact cells, PMA-induced cells or plasma membranes) (human); assay: competition with 125I-SLPI, intact U937 cells, competitor at 84 nM

% *SLPI BOUND | Substance
11% | SLPI mutein Gly 20 (from UniProt P03973 26-132)
10% | SLPI mutein Lys 72 (from UniProt P03973 26-132)

target: SLPI binding sites on U937 cells (human monocyte cell line; intact cells, PMA-induced cells or plasma membranes) (human); assay: competition with 125I-SLPI, U937 plasma membranes, competitor at 2750 nM

CPM *SLPI BOUND | Substance
1500 cpm | SLPI mutein Gly 20 (from UniProt P03973 26-132)
5010 cpm | SLPI mutein Lys 72 (from UniProt P03973 26-132)

target: SLPI binding sites on U937 cells (human monocyte cell line; intact cells, PMA-induced cells or plasma membranes) (human); assay: competition with 125I-SLPI, intact U937 cells, competitor at 0.078 nM

% *SLPI BOUND | Substance
117% | SLPI mutein Gly 20 (from UniProt P03973 26-132)
113% | SLPI mutein Lys 72 (from UniProt P03973 26-132)

target: SLPI binding sites on U937 cells (human monocyte cell line; intact cells, PMA-induced cells or plasma membranes) (human); assay: competition with 125I-SLPI, intact U937 cells, competitor at 8.2 nM

% *SLPI BOUND | Substance
49% | SLPI mutein Gly 20 (from UniProt P03973 26-132)
39% | SLPI mutein Lys 72 (from UniProt P03973 26-132)

target: SLPI binding sites on U937 cells (human monocyte cell line; intact cells, PMA-induced cells or plasma membranes) (human); assay: competition with 125I-SLPI, intact U937 cells, competitor at 0.80 nM

% *SLPI BOUND | Substance
91% | SLPI mutein Gly 20 (from UniProt P03973 26-132)
86% | SLPI mutein Lys 72 (from UniProt P03973 26-132)

target: SLPI binding sites on HuT78 cells (human T cell line) (human); assay: competition with 125I-SLPI, intact HuT78 cells, competitor at 0.80 nM

% *SLPI BOUND | Substance
109% | SLPI mutein Gly 20 (from UniProt P03973 26-132)
105% | SLPI mutein Lys 72 (from UniProt P03973 26-132)

target: SLPI binding sites on HuT78 cells (human T cell line) (human); assay: competition with 125I-SLPI, intact HuT78 cells, Kd by Cheng-Prusoff

Kd | Substance
13 nM | SLPI mutein Gly 20 (from UniProt P03973 26-132)
200 nM | SLPI mutein Lys 72 (from UniProt P03973 26-132)

target: SLPI binding sites on U937 cells (human monocyte cell line; intact cells, PMA-induced cells or plasma membranes) (human); assay: competition with 125I-SLPI, U937 plasma membranes, competitor at 83.9 nM

CPM *SLPI BOUND | Substance
2490 cpm | SLPI mutein Gly 20 (from UniProt P03973 26-132)
3500 cpm | SLPI mutein Lys 72 (from UniProt P03973 26-132)

target: SLPI binding sites on U937 cells (human monocyte cell line; intact cells, PMA-induced cells or plasma membranes) (human); assay: competition with 125I-SLPI, U937 plasma membranes, competitor at 268 nM

CPM *SLPI BOUND | Substance
1620 cpm | SLPI mutein Gly 20 (from UniProt P03973 26-132)
3240 cpm | SLPI mutein Lys 72 (from UniProt P03973 26-132)

target: SLPI binding sites on U937 cells (human monocyte cell line; intact cells, PMA-induced cells or plasma membranes) (human); assay: competition with 125I-SLPI, U937 plasma membranes, competitor at 0.800 nM

CPM *SLPI BOUND | Substance
14900 cpm | SLPI mutein Gly 20 (from UniProt P03973 26-132)
14200 cpm | SLPI mutein Lys 72 (from UniProt P03973 26-132)

target: SLPI binding sites on U937 cells (human monocyte cell line; intact cells, PMA-induced cells or plasma membranes) (human); assay: competition with 125I-SLPI, intact U937 cells, competitor at 2750 nM

% *SLPI BOUND | Substance
5% | SLPI mutein Gly 20 (from UniProt P03973 26-132)
4% | SLPI mutein Lys 72 (from UniProt P03973 26-132)

target: SLPI binding sites on U937 cells (human monocyte cell line; intact cells, PMA-induced cells or plasma membranes) (human); assay: competition with 125I-SLPI, intact U937 cells, competitor at 0 nM

% *SLPI BOUND | Substance
130% | SLPI mutein Gly 20 (from UniProt P03973 26-132)
117% | SLPI mutein Lys 72 (from UniProt P03973 26-132)

target: SLPI binding sites on U937 cells (human monocyte cell line; intact cells, PMA-induced cells or plasma membranes) (human); assay: competition with 125I-SLPI, intact U937 cells, competitor at 270 nM

% *SLPI BOUND | Substance
6% | SLPI mutein Gly 20 (from UniProt P03973 26-132)
6% | SLPI mutein Lys 72 (from UniProt P03973 26-132)

target: SLPI binding sites on U937 cells (human monocyte cell line; intact cells, PMA-induced cells or plasma membranes) (human); assay: competition with 125I-SLPI, intact U937 cells, competitor at 0.25 nM

% *SLPI BOUND | Substance
110% | SLPI mutein Gly 20 (from UniProt P03973 26-132)
103% | SLPI mutein Lys 72 (from UniProt P03973 26-132)

target: SLPI binding sites on U937 cells (human monocyte cell line; intact cells, PMA-induced cells or plasma membranes) (human); assay: competition with 125I-SLPI, intact U937 cells, competitor at 0.024 nM

% *SLPI BOUND | Substance
110% | SLPI mutein Gly 20 (from UniProt P03973 26-132)
116% | SLPI mutein Lys 72 (from UniProt P03973 26-132)

target: SLPI binding sites on HuT78 cells (human T cell line) (human); assay: competition with 125I-SLPI, intact HuT78 cells, competitor at 2750 nM

% *SLPI BOUND | Substance
7% | SLPI mutein Gly 20 (from UniProt P03973 26-132)
34% | SLPI mutein Lys 72 (from UniProt P03973 26-132)

target: SLPI binding sites on U937 cells (human monocyte cell line; intact cells, PMA-induced cells or plasma membranes) (human); assay: competition with 125I-SLPI, intact U937 cells, competitor at 26 nM

% *SLPI BOUND | Substance
28% | SLPI mutein Gly 20 (from UniProt P03973 26-132)
21% | SLPI mutein Lys 72 (from UniProt P03973 26-132)

target: SLPI binding sites on U937 cells (human monocyte cell line; intact cells, PMA-induced cells or plasma membranes) (human); assay: competition with 125I-SLPI, U937 plasma membranes, competitor at 8.20 nM

CPM *SLPI BOUND | Substance
7400 cpm | SLPI mutein Gly 20 (from UniProt P03973 26-132)
7620 cpm | SLPI mutein Lys 72 (from UniProt P03973 26-132)

target: SLPI binding sites on U937 cells (human monocyte cell line; intact cells, PMA-induced cells or plasma membranes) (human); assay: competition with 125I-SLPI, U937 plasma membranes, competitor at 0 nM

CPM *SLPI BOUND | Substance
18700 cpm | SLPI mutein Gly 20 (from UniProt P03973 26-132)
18700 cpm | SLPI mutein Lys 72 (from UniProt P03973 26-132)

target: SLPI binding sites on HuT78 cells (human T cell line) (human); assay: competition with 125I-SLPI, intact HuT78 cells, competitor at 2.6 nM

% *SLPI BOUND | Substance
91% | SLPI mutein Gly 20 (from UniProt P03973 26-132)
118% | SLPI mutein Lys 72 (from UniProt P03973 26-132)

target: SLPI binding sites on HuT78 cells (human T cell line) (human); assay: competition with 125I-SLPI, intact HuT78 cells, competitor at 0 nM

% *SLPI BOUND | Substance
100% | SLPI mutein Gly 20 (from UniProt P03973 26-132)
100% | SLPI mutein Lys 72 (from UniProt P03973 26-132)

target: SLPI binding sites on U937 cells (human monocyte cell line; intact cells, PMA-induced cells or plasma membranes) (human); assay: competition with 125I-SLPI, intact U937 cells, competitor at 860 nM

% *SLPI BOUND | Substance
5% | SLPI mutein Gly 20 (from UniProt P03973 26-132)
5% | SLPI mutein Lys 72 (from UniProt P03973 26-132)

target: SLPI binding sites on U937 cells (human monocyte cell line; intact cells, PMA-induced cells or plasma membranes) (human); assay: competition with 125I-SLPI, U937 plasma membranes, competitor at 2.56 nM

CPM *SLPI BOUND | Substance
11400 cpm | SLPI mutein Gly 20 (from UniProt P03973 26-132)
12200 cpm | SLPI mutein Lys 72 (from UniProt P03973 26-132)

Source: US6869925 (Amgen, dated 2005)
